Measurements reported in US20220323445A1, “REDUCING IMMUNOGENICITY TO PEGLOTICASE” (Horizon Therapeutics Ireland DAC, priority 2020, published 2022).

System: serum uric acid (sUA)
Assay: Serum uric acid (sUA) levels and sUA responders, open-label study of pegloticase with MTX (NCT03635957)
Assay type: in vivo, human
Experimental: The primary objective is to estimate the response rate during Month 6 (Weeks 20, 22, and 24), as measured by the sustained normalization of serum uric acid (SUA) to <6 mg/dL for at least 80% of the time during Month 6 in subjects receiving KXX with MTX.
The primary efficacy outcome endpoint is the sustained normalization of SUA to <6 mg/dL for at least 80% of the time during month 6 (weeks 20, 22, and 24) in subjects receiving KXX with MTX. This is slightly below the urate solubility threshold and this threshold has been the accepted standard for nearly all modern gout trials. Participants who achieve this endpoint were classified as “responders.” Serum uric acid (SUA) responders may also be defined as participants achieving and maintaining SUA <6 mg/dL for at least 80% of the time during Month 6 (Weeks 20, 22, and 24).
Blood samples may be collected prior to each pegloticase infusion for measurement of SUA levels using the Beckman Coulter AU System Uric Acid procedure. Participants were declared “non-responders” if there were SUA measures >6 mg/dL at 2 consecutive study visits beginning with the week 2 visit. […] If the SUA goal is not maintained before or at the 12-week mark, it was assumed that the participant had developed clinically relevant anti-pegloticase antibody and they received no further infusions. This assumption and subsequent discontinuation of pegloticase was consistent with the protocol of large phase III randomized controlled trials and the product label. A formal stopping rule was 2 occasions of SUA levels of greater than 6 mg/dL.
Clinical Chemistry—Blood samples were collected prior to each pegloticase infusion for measurement of SUA levels (primary efficacy parameter) using the Beckman Coulter AU System Uric Acid procedure. In this procedure uric acid is converted to hydrogen peroxide. Hydrogen peroxide reacts with reagent to produce a chromophore which is read bichromatically at 660/800 nm. The amount of dye formed is proportional to the uric acid concentration in the sample.
Serum samples for measurement of SUA levels were collected at the Screening Visit, the Week −4 Visit (prior to the first dose of MTX), and the Week −2 Visit during the MTX Run-in Period; within 48 hours prior to each pegloticase infusion and after the end of each pegloticase infusion prior to discharge from the site during the Pegloticase+IMM Period; at the non-infusion Week 52/End of Study/Early Termination Visits and at the Post Treatment 3 and 6 Month Follow-up Visits. Additional serum samples for SUA levels were collected at optional non-infusion (Frequent Sampling) Visits at Weeks 1 and 7. […] Subjects with SUA level >6 mg/dL at 2 consecutive visits beginning at Week 2 visit discontinued treatment, completed the End of Pegloticase Infusion Visit procedures within 2 weeks and continued the subject visits according to the protocol (without treatment).
Efficacy analyses were performed using the modified intention-to-treat (mITT) population, defined as all enrolled subjects who received ≥1 dose of pegloticase. The proportion of Month 6 responders was summarized, along with a 95% confidence interval for the proportion. The proportion of Month 3 and overall (Months 3 and 6 combined) responders was analyzed similarly.
A subject was declared a non-responder if the subject had SUA level >6 mg/dL at 2 consecutive study visits beginning with the Week 2 Visit. In addition, a subject who withdraws from study treatment for any reason after the first dose of pegloticase in the KXX+MTX Period and prior to Month 6 (for the primary endpoint) or Month 3 (for the secondary endpoint) was considered a non-responder if SUA values were not collected at the planned time points.
Patients were administered oral MTX (15 mg/week) and folate (1 mg/day) 4 weeks prior to the first pegloticase infusion (Day 1) and throughout the pegloticase treatment period. […]

[1] = Week 24 - Pre-Infusion, mITT, n=11
[2] = Week 26 - Pre-Infusion, Month 6 sUA Responders
[3] = Week 26 - Pre-Infusion, mITT, n=8
[4] = Week 28 - Pre-Infusion, Month 6 sUA Responders
[5] = Week 28 - Pre-Infusion, mITT, n=8
[6] = Week 30 - Pre-Infusion, Month 6 sUA Responders
[7] = Week 30 - Pre-Infusion, mITT, n=8
[8] = Week 32 - Post-Infusion, Month 6 sUA Responders
[9] = Week 32 - Post-Infusion, mITT, n=8
[10] = Week 32 - Pre-Infusion, Month 6 sUA Responders
[11] = Week 32 - Pre-Infusion, mITT, n=10
[12] = Week 34 - Post-Infusion, Month 6 sUA Responders
[13] = Week 34 - Post-Infusion, mITT, n=8

B1: pegloticase (protein)
chain: TYKKNDEVEFVRTGYGKDMIKVLHIQRDGKYHSIKEVATTVQLTLSSKKDYLHGDNSDVIPTDTIKNTVNVLAKFKGIKSIETFAVTICEHFLSSFKHVIRAQVYVEEVPWKRFEKNGVKHVHAFIYTPTGTHFCEVEQIRNGPPVIHSGIKDLKVLKTTQSGFEGFIKDQFTTLPEVKDRCFATQVYCKWRYHQGRDVDFEATWDTVRSIVLQKFAGPYDKGEYSPSVQKTLYDIQVLTLGQVPEIEDMEISLPNIHYLNIDMSKMGLINKEEVLLPLDNPYGKITGTVKRKLSSRL
modifications: monomethoxy PEG conjugated; Krystexxa Sequence
notes: covalent conjugate of uricase produced by a genetically modified strain of Escherichia coli and monomethoxypoly (ethylene glycol)
-8.80 mg/dL: sUA Change from Baseline, Median [1]
-8.99 mg/dL: sUA Change from Baseline, Mean [10]
−9.11 (3.293) mg/dL: sUA Change from Baseline, Mean (SD) [3] | sUA Change from Baseline, Mean (SD) [5] | sUA Change from Baseline, Mean (SD) [7] | sUA Change from Baseline, Mean (SD) [9] | sUA Change from Baseline, Mean (SD) [13]
−8.99 (2.961) mg/dL: sUA Change from Baseline, Mean (SD) [11]
−8.97 (2.810) mg/dL: sUA Change from Baseline, Mean (SD) [1]
0.30 mg/dL: sUA Observed, Median [1] | sUA Observed, Mean [2] | sUA Observed, Median [2] | sUA Observed, Median [3] | sUA Observed, Mean [4] | sUA Observed, Median [4] | sUA Observed, Median [5] | sUA Observed, Mean [6] | sUA Observed, Median [6] | sUA Observed, Median [7] | sUA Observed, Mean [8] | sUA Observed, Median [8] | sUA Observed, Median [9] | sUA Observed, Mean [10] | sUA Observed, Median [10] | sUA Observed, Median [11] | sUA Observed, Mean [12] | sUA Observed, Median [12] | sUA Observed, Median [13]
11 (100%): sUA < 6 mg/dL, n (%) [1]
10 (100%): sUA < 6 mg/dL, n (%) [11]
0.30 (0.000) mg/dL: sUA Observed, Mean (SD) [1] | sUA Observed, Mean (SD) [3] | sUA Observed, Mean (SD) [5] | sUA Observed, Mean (SD) [7] | sUA Observed, Mean (SD) [9] | sUA Observed, Mean (SD) [11] | sUA Observed, Mean (SD) [13]
8 (100%): sUA < 6 mg/dL, n (%) [3] | sUA < 6 mg/dL, n (%) [5] | sUA < 6 mg/dL, n (%) [7] | sUA < 6 mg/dL, n (%) [9] | sUA < 6 mg/dL, n (%) [13]
(100%): sUA < 6 mg/dL, % [2] | sUA < 6 mg/dL, % [4] | sUA < 6 mg/dL, % [6] | sUA < 6 mg/dL, % [8] | sUA < 6 mg/dL, % [10] | sUA < 6 mg/dL, % [12]
-8.95 mg/dL: sUA Change from Baseline, Median [2] | sUA Change from Baseline, Median [3] | sUA Change from Baseline, Median [4] | sUA Change from Baseline, Median [5] | sUA Change from Baseline, Median [6] | sUA Change from Baseline, Median [7] | sUA Change from Baseline, Median [8] | sUA Change from Baseline, Median [9] | sUA Change from Baseline, Median [10] | sUA Change from Baseline, Median [11] | sUA Change from Baseline, Median [12] | sUA Change from Baseline, Median [13]
-9.11 mg/dL: sUA Change from Baseline, Mean [2] | sUA Change from Baseline, Mean [4] | sUA Change from Baseline, Mean [6] | sUA Change from Baseline, Mean [8] | sUA Change from Baseline, Mean [12]
